Values quoted from earlier work in article PMC3157396, “Molecular Basis for the Recognition of Adenomatous Polyposis Coli by the Discs Large 1 Protein” (PLoS ONE, 2011).

System: PDZ1 and PDZ2 domains of PSD-95
Description: The 3D structures of the three PDZ domains of DLG1 have been determined in the free forms [13]–[15]. They share very similar structures, and the ligand binding pockets are also conserved. […] The residues in the β2/β3 loop ...

B1: Kv1.4 potassium channel: Kv1.4 potassium channel (protein, UniProt P22459 1-653, looked up)
Potassium voltage-gated …: MEVAMVSAESSGCNSHMPYGYAAQARARERERLAHSRAAAAAAVAAATAAVEGSGGSGGGSHHHHQSRGACTSHDPQSSRGSRRRRRQRSEKKKAHYRQSSFPHCSDLMPSGSEEKILRELSEEEEDEEEEEEEEEEGRFYYSEDDHGDECSYTDLLPQDEGGGGYSSVRYSDCCERVVINVSGLRFETQMKTLAQFPETLLGDPEKRTQYFDPLRNEYFFDRNRPSFDAILYYYQSGGRLKRPVNVPFDIFTEEVKFYQLGEEALLKFREDEGFVREEEDRALPENEFKKQIWLLFEYPESSSPARGIAIVSVLVILISIVIFCLETLPEFRDDRDLVMALSAGGHGGLLNDTSAPHLENSGHTIFNDPFFIVETVCIVWFSFEFVVRCFACPSQALFFKNIMNIIDIVSILPYFITLGTDLAQQQGGGNGQQQQAMSFAILRIIRLVRVFRIFKLSRHSKGLQILGHTLRASMRELGLLIFFLFIGVILFSSAVYFAEADEPTTHFQSIPDAFWWAVVTMTTVGYGDMKPITVGGKIVGSLCAIAGVLTIALPVPVIVSNFNYFYHRETENEEQTQLTQNAVSCPYLPSNLLKKFRSSTSSSLGDKSEYLEMEEGVKESLCAKEEKCQGKGDDSETDKNNCSNAKAVETDV
Question: For B1, which “change of binding affinity on deletion of six residues from the β2/β3 loops (in words)” value is on record?
Answer: decreases the binding affinity
